Data reported in the MegaScale stability set (Tsuboyama et al. 2023).

B1: EEHEE_rd4_0003 (parent)
chain: KKVTINGVEIKFNNPEEAVKFALELAKRLNLRIEFHGDQIKIE

Variants of: B1
Experiment: folding stability dG (cDNA display proteolysis); higher = more stable
Details: PBS, room temperature

Variant	folding stability dG
KKVTINGVEIKFNNPEEAVKFALELAKRLYLRIEFHGDQIKIE [N30Y]	2.42 kcal/mol
KKVTINGVEIKFNNPEEAVKFALELAKRLTLRIEFHGDQIKIE [N30T]	2.12 kcal/mol
KKVTINGVEIKFNNPEEAVKFALELAKRLALRIEFHGDQIKIE [N30A]	2.23 kcal/mol
KKVTINGVEIKFNNPEEAVKFALELAKRLRLRIEFHGDQIKIE [N30R]	2.61 kcal/mol
KKVTINGVEIKFNNPEEAVKFALELAKRLWLRIEFHGDQIKIE [N30W]	2.72 kcal/mol
KKVTINGVEIKFNNPEEAVKFALELAKRLGLRIEFHGDQIKIE [N30G]	2.65 kcal/mol
KKVTINGVEIKFNNPEEAVKFALELAKRLILRIEFHGDQIKIE [N30I]	2.34 kcal/mol
KKVTINGVEIKFNNPEEAVKFALELAKRLSLRIEFHGDQIKIE [N30S]	2.2 kcal/mol
KKVTINGVEIKFNNPEEAVKFALELAKRLKLRIEFHGDQIKIE [N30K]	2.55 kcal/mol
KKVTINGVEIKFNNPEEAVKFALELAKRLELRIEFHGDQIKIE [N30E]	1.86 kcal/mol
KKVTINGVEIKFNNPEEAVKFALELAKRLVLRIEFHGDQIKIE [N30V]	2.29 kcal/mol
KKVTINGVEIKFNNPEEAVKFALELAKRLDLRIEFHGDQIKIE [N30D]	1.9 kcal/mol
KKVTINGVEIKFNNPEEAVKFALELAKRLMLRIEFHGDQIKIE [N30M]	2.43 kcal/mol
KKVTINGVEIKFNNPEEAVKFALELAKRLHLRIEFHGDQIKIE [N30H]	2.47 kcal/mol
KKVTINGVEIKFNNPEEAVKFALELAKRLPLRIEFHGDQIKIE [N30P]	1.82 kcal/mol
KKVTINGVEIKFNNPEEAVKFALELAKRLLLRIEFHGDQIKIE [N30L]	2.51 kcal/mol
KKVTINGVEIKFNNPEEAVKFALELAKRLCLRIEFHGDQIKIE [N30C]	3.46 kcal/mol
KKVTINGVEIKFNNPEEAVKFALELAKRLFLRIEFHGDQIKIE [N30F]	2.55 kcal/mol
KKVTINGVEIKFNNPEEAVKFALEGAKRLNLRIEFHGDQIKIE [L25G]	0.776 kcal/mol
KKVTINGVEIKFNNPEEAVKFALEQAKRLNLRIEFHGDQIKIE [L25Q]	1.62 kcal/mol

Variant	folding stability dG
KKVTINGVEIKFNNPEEAVKFALEMAKRLNLRIEFHGDQIKIE [L25M]	2.46 kcal/mol
KKVTINGVEIKFNNPEEAVKFALECAKRLNLRIEFHGDQIKIE [L25C]	2.82 kcal/mol
KKVTINGVEIKFNNPEEAVKFALENAKRLNLRIEFHGDQIKIE [L25N]	1.32 kcal/mol
KKVTINGVEIKFNNPEEAVKFALEDAKRLNLRIEFHGDQIKIE [L25D]	0.443 kcal/mol
KKVTINGVEIKFNNPEEAVKFALEPAKRLNLRIEFHGDQIKIE [L25P]	-0.052 kcal/mol
KKVTINGVEIKFNNPEEAVKFALETAKRLNLRIEFHGDQIKIE [L25T]	1.7 kcal/mol
KKVTINGVEIKFNNPEEAVKFALEWAKRLNLRIEFHGDQIKIE [L25W]	2.53 kcal/mol
KKVTINGVEIKFNNPEEAVKFALEKAKRLNLRIEFHGDQIKIE [L25K]	0.98 kcal/mol
KKVTINGVEIKFNNPEEAVKFALEYAKRLNLRIEFHGDQIKIE [L25Y]	2.72 kcal/mol
KKVTINGVEIKFNNPEEAVKFALEIAKRLNLRIEFHGDQIKIE [L25I]	2.53 kcal/mol
KKVTINGVEIKFNNPEEAVKFALEHAKRLNLRIEFHGDQIKIE [L25H]	1.48 kcal/mol
KKVTINGVEIKFNNPEEAVKFALEVAKRLNLRIEFHGDQIKIE [L25V]	2.24 kcal/mol
KKVTINGVEIKFNNPEEAVKFALESAKRLNLRIEFHGDQIKIE [L25S]	1.11 kcal/mol
KKVTINGVEIKFNNPEEAVKFALEEAKRLNLRIEFHGDQIKIE [L25E]	1.56 kcal/mol
KKVTINGVEIKFNNPEEAVKFALEFAKRLNLRIEFHGDQIKIE [L25F]	2.44 kcal/mol
KKVTINGVEIKFNNPEEAVKFALEAAKRLNLRIEFHGDQIKIE [L25A]	1.9 kcal/mol
KKVTINGVEIKFNNPEEAVKFALERAKRLNLRIEFHGDQIKIE [L25R]	0.955 kcal/mol
KKVTINGVEIKFNNPEEAVKFALELAKRLNDRIEFHGDQIKIE [L31D]	0.559 kcal/mol
KKVTINGVEIKFNNPEEAVKFALELAKRLNCRIEFHGDQIKIE [L31C]	2.84 kcal/mol
KKVTINGVEIKFNNPEEAVKFALELAKRLNARIEFHGDQIKIE [L31A]	2.72 kcal/mol

Variant	folding stability dG
KKVTINGVEIKFNNPEEAVKFALELACRLNLRIEFHGDQIKIE [K27C]	3.23 kcal/mol
KKVTINGVEIKFNNPEEAVKFALELASRLNLRIEFHGDQIKIE [K27S]	2.52 kcal/mol
KKVTINGVEIKFNNPEEAVKFALELAARLNLRIEFHGDQIKIE [K27A]	2.72 kcal/mol
KKVTINGVEIKFNNPEEAVKFALELADRLNLRIEFHGDQIKIE [K27D]	2.03 kcal/mol
KKVTINGVEIKFNNPEEAVKFALELAERLNLRIEFHGDQIKIE [K27E]	2.38 kcal/mol
KKVTINGVEIKFNNPEEAVKFALELARRLNLRIEFHGDQIKIE [K27R]	2.79 kcal/mol
KKVTINGVEIKFNNPEEAVKFALELAVRLNLRIEFHGDQIKIE [K27V]	2.24 kcal/mol
KKVTINGVEIKFNNPEEAVKFALELAYRLNLRIEFHGDQIKIE [K27Y]	2.44 kcal/mol
KKVTINGVEIKFNNPEEAVKFALELAMRLNLRIEFHGDQIKIE [K27M]	2.57 kcal/mol
KKVTINGVEIKFNNPEEAVKFALELAPRLNLRIEFHGDQIKIE [K27P]	1.37 kcal/mol
KKVTINGVEIKFNNPEEAVKFALELAFRLNLRIEFHGDQIKIE [K27F]	2.63 kcal/mol
KKVTINGVEIKFNNPEEAVKFALELAWRLNLRIEFHGDQIKIE [K27W]	2.47 kcal/mol
KKVTINGVEIKFNNPEEAVKFALELAIRLNLRIEFHGDQIKIE [K27I]	2.4 kcal/mol
KKVTINGVEIKFNNPEEAVKFALELAQRLNLRIEFHGDQIKIE [K27Q]	2.47 kcal/mol
KKVTINGVEIKFNNPEEAVKFALELAGRLNLRIEFHGDQIKIE [K27G]	2.39 kcal/mol
KKVTINGVEIKFNNPEEAVKFALELANRLNLRIEFHGDQIKIE [K27N]	2.32 kcal/mol
KKVTINGVEIKFNNPEEAVKFALELATRLNLRIEFHGDQIKIE [K27T]	2.52 kcal/mol
KKVTINGVEIKFNNPEEAVKFALELAHRLNLRIEFHGDQIKIE [K27H]	2.48 kcal/mol
KKVTINGVEIKFNNPEEAVKFALELALRLNLRIEFHGDQIKIE [K27L]	2.62 kcal/mol
